{"source": "FireProtDB (doi:10.1016/j.jmb.2009.11.038)", "proteins": {"B1": {"name": "wild type, Q5NV88 (protein)", "chain": "NFMLTQPHSVSESPGKTVTISCTRSSGSIASNYVQWYQQRPGSSPTTVIYEDNQRPSGVPDRFSGSIDSSSNSASLTISGLKTEDEADYYCQSYDSSN"}}, "settings": "Homo sapiens, pH 7.5, Fluorescence, Sodium phosphate 20mM, transition: 2, whole UniProt chain shown"}
{"protein": "B1", "values": [{"measurement": "denaturant midpoint (higher = more stable)", "setting": "25 °C, GdnHCl", "result": 1.41, "unit": "M"}, {"measurement": "unfolding free energy", "setting": "25 °C, GdnHCl", "result": 5.1, "unit": "kcal/mol"}, {"measurement": "Tm", "setting": "Thermal", "result": 49.9, "unit": "°C"}, {"measurement": "unfolding enthalpy (calorimetric)", "setting": "Thermal", "result": 86.2, "unit": "kcal/mol"}, {"measurement": "unfolding free energy", "setting": "Thermal", "result": 5.2, "unit": "kcal/mol"}]}
